No end group written: not given here. alkyl = not defined here
B1: Peptide UM206 (linear), Ac-Cys-Asn-Lys-Thr-Ser-Glu-Gly-Met-Asp-Gly-Cys-Glu-Leu-NH2 (peptide)
peptide: Ac-CNKTSEGMDGCEL-NH2
modifications: cysteine pairing not given here
B2: Peptide UM207 (linear), Ac-Gly-Ile-Lys-Glu-Cys-Gln-Tyr-Gln-Phe-Arg-His-Arg-Arg-Trp-Asn-Cys-Ser-Thr-Val-Asp-NH2 (peptide)
peptide: Ac-GIKECQYQFRHRRWNCSTVD-NH2
modifications: cysteine pairing not given here
B3: UM208 (peptide)
peptide: GSCSLKTCWLQLAD
B4: UM206 (7 G = A) (peptide)
peptide: CNKTSEAMDGCEL
B5: UM206 (3 K = A) (peptide)
peptide: CNATSEGMDGCEL
B6: UM206 (12 E = A) (peptide)
peptide: CNKTSEGMDGCAL
B7: UM206 (12-13 EL = AA) (peptide)
peptide: CNKTSEGMDGCAA
B8: UM206 (1 C = A) (peptide)
peptide: ANKTSEGMDGCEL
B9: peptide CNVSSHGIDGCDL (SEQ ID NO: 18), derived from the area of Wnt3a homologous to UM206 (peptide)
peptide: CNVSSHGIDGCDL
B10: UM206 (10 G = A) (peptide)
peptide: CNKTSEGMDACEL
B11: UM206 (C = C-alkyl) (peptide)
peptide: C(alkyl)NKTSEGMDGC(alkyl)EL
modifications: reading uncertain; also: alkyl group not given here
B12: UM206 (13 L = A) (peptide)
peptide: CNKTSEGMDGCEA
B13: UM206 (4 T = A) (peptide)
peptide: CNKASEGMDGCEL
B14: UM206 - (label cut short in Table 3; taken as UM206 with the C-terminal Glu-Leu deleted) (peptide)
peptide: CNKTSEGMDGC
B15: UM206 (11 C = A) (peptide)
peptide: CNKTSEGMDGAEL
B16: UM206 (2 N = A) (peptide)
peptide: CAKTSEGMDGCEL
B17: UM206 (4 T = A, 7 G = A, 9 D = A) (peptide)
peptide: CNKASEAMAGCEL
B18: UM206 (5 S = A) (peptide)
peptide: CNKTAEGMDGCEL
B19: UM206 (C = A) (peptide)
peptide: ANKTSEGMDGAEL
B20: UM206 (6 E = A) (peptide)
peptide: CNKTSAGMDGCEL
B21: UM206 (C = S) (peptide)
peptide: SNKTSEGMDGSEL
B22: UM206 (9 D = A) (peptide)
peptide: CNKTSEGMAGCEL
B23: UM206 (8 M = A) (peptide)
peptide: CNKTSEGADGCEL

molecular target: T1, rFzd-1 (frizzled-1 receptor) (rat, UniProt Q08463 69-641); assay: cell-based or functional assay
T1 sequence (Q08463 69-641): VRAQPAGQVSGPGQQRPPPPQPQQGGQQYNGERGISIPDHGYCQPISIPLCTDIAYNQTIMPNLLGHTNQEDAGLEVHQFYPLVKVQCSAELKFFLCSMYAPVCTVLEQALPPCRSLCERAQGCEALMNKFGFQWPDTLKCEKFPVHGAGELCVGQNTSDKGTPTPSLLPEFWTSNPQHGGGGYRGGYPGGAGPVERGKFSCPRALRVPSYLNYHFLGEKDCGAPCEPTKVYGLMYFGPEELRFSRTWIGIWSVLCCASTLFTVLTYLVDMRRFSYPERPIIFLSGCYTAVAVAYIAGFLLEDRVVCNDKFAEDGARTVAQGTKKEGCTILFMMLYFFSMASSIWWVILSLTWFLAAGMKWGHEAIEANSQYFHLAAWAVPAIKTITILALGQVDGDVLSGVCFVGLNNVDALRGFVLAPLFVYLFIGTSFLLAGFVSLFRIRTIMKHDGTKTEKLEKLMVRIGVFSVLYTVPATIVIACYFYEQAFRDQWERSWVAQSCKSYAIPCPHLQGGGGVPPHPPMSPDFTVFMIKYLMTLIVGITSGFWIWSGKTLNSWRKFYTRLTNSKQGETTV

B1 was tested, and the “IC50, inhibition of Wnt3a (10^-9 M)-induced luciferase, HEK293-superTOPflash, two-binding-state fit” value was 2.1 nM.

First: B2
Second: B3
The “IC50, inhibition of Wnt3a (10^-9 M)-induced luciferase, HEK293-superTOPflash, single binding site fit” value of the first is 52-fold lower: 40 nM for the first, 2060 nM for the second.

molecular target: T2, rFzd-2 (frizzled-2 receptor) (rat, UniProt Q08464 29-570); assay: cell-based or functional assay
T2 sequence (Q08464 29-570): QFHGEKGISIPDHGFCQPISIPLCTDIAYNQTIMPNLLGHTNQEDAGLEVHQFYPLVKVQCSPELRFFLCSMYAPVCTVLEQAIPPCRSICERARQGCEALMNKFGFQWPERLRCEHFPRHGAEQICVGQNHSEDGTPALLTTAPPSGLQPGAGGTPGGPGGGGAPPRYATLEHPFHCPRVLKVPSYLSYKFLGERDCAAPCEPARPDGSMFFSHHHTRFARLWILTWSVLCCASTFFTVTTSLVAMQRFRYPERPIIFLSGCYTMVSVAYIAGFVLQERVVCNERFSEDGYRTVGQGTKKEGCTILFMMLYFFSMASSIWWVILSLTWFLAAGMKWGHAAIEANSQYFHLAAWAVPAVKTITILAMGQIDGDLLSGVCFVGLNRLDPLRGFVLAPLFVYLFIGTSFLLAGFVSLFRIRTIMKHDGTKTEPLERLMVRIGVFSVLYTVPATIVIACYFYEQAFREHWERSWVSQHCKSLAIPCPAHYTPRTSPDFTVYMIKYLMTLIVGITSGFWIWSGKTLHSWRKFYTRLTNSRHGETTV

B1 was tested, and the “IC50, inhibition of Wnt3a (10^-9 M)-induced luciferase, HEK293-superTOPflash, two-binding-state fit” value was 0.0169 nM.

With B1 the “affinity ratio against rFzd-1, from reporter IC50 values” was about 100 fold.

First: B2
Second: B3
The “IC50, inhibition of Wnt3a (10^-9 M)-induced luciferase, HEK293-superTOPflash, single binding site fit” value of the first is 140-fold lower: 15.2 nM for the first, 2110 nM for the second.

molecular target: T1, rFzd-1 (frizzled-1 receptor); assay: cell-based or functional assay; remark: another data set of the same source

First: B4
Second: B5
The “% of inhibition of Wnt3a-induced luciferase activity (peptide at 1.10^-9 M)” value (shortened to “% of inhibition … (peptide at 1.10^-9 M)”) of the first is lower: 52.6% for the first, 70.8% for the second.

Compared with B6, B7 is higher in “% of inhibition … (peptide at 1.10^-9 M)” value: 65.9% for the first, 66.8% for the second.

Going from B8 to B9, the “% of inhibition … (peptide at 1.10^-9 M)” value falls from 70.8% to 45.3%.

Compared with B10, B11 is lower in “% of inhibition … (peptide at 1.10^-9 M)” value: 69.9% for the first, 1% for the second.

Compared with B12, B13 is lower in “% of inhibition … (peptide at 1.10^-9 M)” value: 65.9% for the first, 28.1% for the second.

First: B14
Second: B15
The “% of inhibition … (peptide at 1.10^-9 M)” value of the first is lower: 18% for the first, 67.2% for the second.

Going from B1 to B16, the “% of inhibition … (peptide at 1.10^-9 M)” value falls from 72.2% to 68%.

Compared with B17, B18 is higher in “% of inhibition … (peptide at 1.10^-9 M)” value: 11.2% for the first, 74.3% for the second.

Compared with B19, B20 is higher in “% of inhibition … (peptide at 1.10^-9 M)” value: 0% for the first, 70.8% for the second.

First: B21
Second: B22
The “% of inhibition … (peptide at 1.10^-9 M)” value of the first is lower: 0% for the first, 40.5% for the second.

In the case of B23, the “% of inhibition … (peptide at 1.10^-9 M)” value is reported as 67.6%.

molecular target: T2, rFzd-2 (frizzled-2 receptor); assay: cell-based or functional assay; remark: another data set of the same source

First: B4
Second: B5
The “% of inhibition … (peptide at 1.10^-9 M)” value of the first is lower: 63.1% for the first, 84.9% for the second.

Compared with B6, B7 is lower in “% of inhibition … (peptide at 1.10^-9 M)” value: 85.5% for the first, 74.3% for the second.

First: B8
Second: B9
The “% of inhibition … (peptide at 1.10^-9 M)” value of the first is higher: 82.6% for the first, 62.4% for the second.

First: B10
Second: B11
The “% of inhibition … (peptide at 1.10^-9 M)” value of the first is higher: 83.3% for the first, 12.4% for the second.

Going from B12 to B13, the “% of inhibition … (peptide at 1.10^-9 M)” value falls from 86.5% to 59.4%.

First: B14
Second: B15
The “% of inhibition … (peptide at 1.10^-9 M)” value of the first is lower: 61.2% for the first, 84.9% for the second.

Going from B1 to B16, the “% of inhibition … (peptide at 1.10^-9 M)” value rises from 75.1% to 79.5%.

Going from B17 to B18, the “% of inhibition … (peptide at 1.10^-9 M)” value rises from 17.5% to 87.3%.

First: B19
Second: B20
The “% of inhibition … (peptide at 1.10^-9 M)” value of the first is lower: 8.39% for the first, 84.7% for the second.

Going from B21 to B22, the “% of inhibition … (peptide at 1.10^-9 M)” value rises from 17% to 60.5%.

In the case of B23, the “% of inhibition … (peptide at 1.10^-9 M)” value is reported as 85%.

molecular target: T3, mouse Fzd-2 (mouse, UniProt Q9JIP6 29-570); assay: competition: UM207 (1.10^-7 M) pre-incubated on mouse tissue sections, competitor UM206-rhodamine
T3 construct: whole, on cells; also called frizzled-2 (mouse)
Experimental: (§1) Specificity of the binding site was confirmed by prior incubation of the tissue sections with UM207 (1.10⁻⁷ M) or recombinant Wnt3a (1.10⁻⁸ M). Both compounds completely abolished the binding of UM206-rhodamine to its receptors.

T3 sequence (Q9JIP6 29-570): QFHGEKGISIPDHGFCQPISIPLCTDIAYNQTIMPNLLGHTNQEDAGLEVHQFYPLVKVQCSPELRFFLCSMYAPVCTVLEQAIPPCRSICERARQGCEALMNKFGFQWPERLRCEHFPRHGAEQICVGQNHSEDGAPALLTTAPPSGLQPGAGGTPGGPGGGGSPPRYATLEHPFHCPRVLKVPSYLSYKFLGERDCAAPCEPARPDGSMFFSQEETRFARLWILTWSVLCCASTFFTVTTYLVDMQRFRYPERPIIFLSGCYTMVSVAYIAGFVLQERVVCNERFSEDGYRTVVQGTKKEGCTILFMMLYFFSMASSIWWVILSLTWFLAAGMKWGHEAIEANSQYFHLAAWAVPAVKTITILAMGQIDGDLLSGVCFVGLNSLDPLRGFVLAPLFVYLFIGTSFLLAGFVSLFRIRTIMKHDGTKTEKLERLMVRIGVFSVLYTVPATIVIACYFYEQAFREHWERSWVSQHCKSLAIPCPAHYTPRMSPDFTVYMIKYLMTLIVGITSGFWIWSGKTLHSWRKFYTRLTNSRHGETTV

B2: binds.

molecular target: T4, mouse Fzd-1 (mouse, UniProt O70421 69-642); assay: as above
T4 construct: whole, on cells; also called frizzled-1 (mouse)
Experimental: as §1

T4 sequence (O70421 69-642): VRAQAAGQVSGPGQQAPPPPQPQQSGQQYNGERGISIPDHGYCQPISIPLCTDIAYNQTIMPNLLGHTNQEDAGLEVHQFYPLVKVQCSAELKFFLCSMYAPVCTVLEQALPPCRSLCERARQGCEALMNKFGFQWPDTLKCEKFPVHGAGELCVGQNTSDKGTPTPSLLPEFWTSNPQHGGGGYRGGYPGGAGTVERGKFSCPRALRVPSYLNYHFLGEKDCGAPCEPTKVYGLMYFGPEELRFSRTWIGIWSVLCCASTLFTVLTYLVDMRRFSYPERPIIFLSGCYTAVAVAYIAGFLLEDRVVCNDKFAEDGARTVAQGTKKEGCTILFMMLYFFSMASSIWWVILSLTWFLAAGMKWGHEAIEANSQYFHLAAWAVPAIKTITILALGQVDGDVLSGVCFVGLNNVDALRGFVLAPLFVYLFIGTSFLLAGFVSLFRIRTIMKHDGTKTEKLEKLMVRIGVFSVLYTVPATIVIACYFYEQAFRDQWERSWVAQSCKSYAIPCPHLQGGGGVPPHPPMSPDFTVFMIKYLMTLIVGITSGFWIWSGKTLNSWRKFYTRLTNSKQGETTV

B2: binds.
